From publication PMC4267404, “Trihelix transcription factor GT-4 mediates salt tolerance via interaction with TEM2 in Arabidopsis”

T1: GST-GT-4 (Arabidopsis thaliana, UniProt Q9LU92 1-372)
T1 sequence: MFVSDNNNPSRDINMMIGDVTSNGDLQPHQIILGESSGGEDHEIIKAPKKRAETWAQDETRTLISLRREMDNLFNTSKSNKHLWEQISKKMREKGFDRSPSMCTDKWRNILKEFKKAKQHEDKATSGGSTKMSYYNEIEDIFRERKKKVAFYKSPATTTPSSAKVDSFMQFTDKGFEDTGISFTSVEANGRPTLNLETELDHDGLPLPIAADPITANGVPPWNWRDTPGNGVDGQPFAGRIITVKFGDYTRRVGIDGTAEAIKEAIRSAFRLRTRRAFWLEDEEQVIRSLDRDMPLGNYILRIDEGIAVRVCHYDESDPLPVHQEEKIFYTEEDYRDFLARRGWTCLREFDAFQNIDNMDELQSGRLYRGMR


Tests used:
[1] = target: T1, GST-GT-4; assay: EMSA; unlabeled competitor reduces band; Probes annealed in 50 mM NaCl (70 C 5 min, then room temperature); EMSA binding buffer, pH and temperature not given (as in ref. 57); conditions: protein: recombinant; tags: N-terminal GST (pGEX6p-1); label: digoxigenin; annealed complementary oligos
[2] = target: T1, GST-GT-4; assay: EMSA; Probes annealed in 50 mM NaCl (70 C 5 min, then room temperature); EMSA binding buffer, pH and temperature not given (as in ref. 57); conditions: protein: recombinant; tags: N-terminal GST (pGEX6p-1); label: digoxigenin

| Binder | binding result [1] | binding result [2] |
| --- | --- | --- |
| P7 (MRE4) (dsDNA) DNA 1: TATCTCACCGTTACCTCTCACCGTTACCTCTCACCTACCATT DNA 2: AATGGTAGGTGAGAGGTAACGGTGAGAGGTAACGGTGAGATA | binds |  |
| P1 (GT-3 box) (dsDNA) DNA 1: CGGGGTAAATAGGTAAATAGGTAAATA DNA 2: TATTTACCTATTTACCTATTTACCCCG | binds |  |
| P2 (GT-3b box) (dsDNA) DNA 1: CGGAAAAATCGAAAAATCGAAAAATT DNA 2: AATTTTTCGATTTTTCGATTTTTCCG | binds |  |
| Cor15A promoter 60 bp fragment with GT-3b box (dsDNA) DNA 1: TTTCTTTAAGGAAATACATCAGAGAGAAAAATTATTACGAAACGATTCTATTACAAGTAA DNA 2: TTACTTGTAATAGAATCGTTTCGTAATAATTTTTCTCTCTGATGTATTTCCTTAAAGAAA |  | binds |
